Several values for one entry are separate records, joined by “and”; a condition that tells them apart may be missing. Equal values may be shown once.

For assay [1], the target named is human chemokine CCL11 (Eotaxin-1) (human) (UniProt P51671). The assay can be described thus: native MS; ion mobility MS (Waters Synapt G2 HDMS), nanospray; equimolar (1:1) mixture of CCL11 and Arixtra in 250 mM ammonium acetate; oligomers seen unbound and bound to Arixtra; MS/MS of the [tetramer+Arixtra]12+ ion gives monomer and trimer+Arixtra.
For assay [2] the target is unchanged. The assay can be described thus: crystal structure; very preliminary X-ray structure of the CCL11 tetramer bound to Arixtra; de-twinned; Rfactor 17.6%, Rfree 26.7%; not deposited.
Assay [3] shares this target. The assay can be described thus: native MS; ion mobility MS (Waters Synapt G2 HDMS), nanospray; CCL11 alone at 20 μM in 250 mM ammonium acetate (pH 6.8), native conditions.

human chemokine CCL11 (Eotaxin-1), P51671 24-97 (natural protein; other documents disagree on this pair), sequence (P51671 24-97): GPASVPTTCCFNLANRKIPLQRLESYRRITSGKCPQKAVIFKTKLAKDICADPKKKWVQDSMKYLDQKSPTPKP

Regarding “human chemokine CCL11 (Eotaxin-1), P51671 24-97 (natural protein; other documents disagree on this pair)”, the stoichiometry N in assay [1] (Dimer + Arixtra) was 2; in assay [1] (Tetramer + Arixtra), 4; in assay [2] it was 4; in assay [3], 4 and 2.

One may read the stoichiometry N as a count of units in the complex or per binding partner.

The values above are taken from paper PMC4030970, “Structural Evidence for the Tetrameric Assembly of Chemokine CCL11 and the Glycosaminoglycan Arixtra™” (Biomolecules, 2013).
